Numbering of substitutions follows the chain as printed.

Test [1] has as its target T1, human-mouse fusion construct 5015 of CD137, on Jurkat cells (human with a murine segment, UniProt Q07011 24-255).
T1 construct: also called mutant 5015; murine switch mutant 5015
T1 chain: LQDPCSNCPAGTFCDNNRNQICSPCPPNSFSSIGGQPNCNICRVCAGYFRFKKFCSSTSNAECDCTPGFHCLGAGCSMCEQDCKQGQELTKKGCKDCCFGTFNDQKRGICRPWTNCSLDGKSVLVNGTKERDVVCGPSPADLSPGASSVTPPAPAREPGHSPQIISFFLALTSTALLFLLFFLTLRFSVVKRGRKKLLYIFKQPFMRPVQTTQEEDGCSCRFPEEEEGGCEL
Briefly: flow cytometry on transfected Jurkat cells, anti-human IgG-PE detection. How it is done: (§1) These engineered mutant cell lines were used to test whether anti-CD137 antibody can bind to particular switch mutants. Absence of binding would thereby indicate possible epitope locations. The cell binding assays were performed generally as described in Section 1.1. […] The cells were then washed and suspended in 80 μl of 2% paraformaldehyde (Electron Microscopy Sciences) prepared in PBS. Data were collected with BD FACS Canto and analyzed using BD FACSDiva software.
A general note: In flow cytometry, cells or beads pass a laser one at a time.

Test [2] concerns the target T2, human-mouse fusion construct 5018 of CD137, on Jurkat cells (human with a murine segment, UniProt Q07011 24-255).
T2 construct: also called mutant 5018; murine switch mutant 5018
T2 chain: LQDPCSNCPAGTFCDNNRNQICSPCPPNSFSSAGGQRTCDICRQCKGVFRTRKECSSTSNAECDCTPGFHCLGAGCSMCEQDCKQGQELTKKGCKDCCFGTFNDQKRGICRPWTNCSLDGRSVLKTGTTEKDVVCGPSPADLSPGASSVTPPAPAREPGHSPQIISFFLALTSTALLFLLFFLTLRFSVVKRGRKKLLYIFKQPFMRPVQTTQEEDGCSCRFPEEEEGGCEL
The description is as above. The protocol:
as §1

Test [3] addresses T3, human-mouse fusion construct 5016 of CD137, on Jurkat cells (human with a murine segment, UniProt Q07011 24-255).
T3 chain: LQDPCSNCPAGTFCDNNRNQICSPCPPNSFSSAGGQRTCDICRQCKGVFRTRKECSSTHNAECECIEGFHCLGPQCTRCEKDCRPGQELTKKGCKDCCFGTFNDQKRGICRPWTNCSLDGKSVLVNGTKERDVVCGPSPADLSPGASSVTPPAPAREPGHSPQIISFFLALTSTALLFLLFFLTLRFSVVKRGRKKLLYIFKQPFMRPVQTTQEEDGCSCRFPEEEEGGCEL
Described as above. How it is done:
as §1

The target of test [4] is T4, “4-aa human to mouse” CD137 protein (human with a murine segment, UniProt Q07011 24-186).
T4 construct: also called “human to mouse” CD137 chimeric protein; not shown: Gly-Ser linker
Briefly: SPR, antibody captured by anti-human Fab, CD137 protein as analyte. The protocol:
(§2) The chimeric CD137 proteins described above were tested in a surface plasmon resonance (SPR) assay. Briefly, a CM5 sensor chip was first coated with an anti-human Fab antibody using the amine coupling kit. […] Sensorgrams were recorded during both the association and dissociation phases.

In test [5] the target is T5, human CD137 expressed on cells (human, UniProt Q07011 24-255).
T5 construct: also called 4-1BB; TNFRSF9
Put plainly: flow cytometry on engineered Jurkat cells, anti-human lambda-PE detection.

The target of test [6] is T6, “4-aa mouse to human” CD137 protein (murine with a human segment, UniProt P20334 24-187).
T6 construct: also called “mouse to human” CD137 chimeric protein; not shown: Gly-Ser linker
Put plainly: SPR, BA001 captured by anti-human Fab, chimeric protein at 60 nM as analyte. How it is done:
as §2
On the technique in general: SPR reads the build-up and loss of mass on a sensor chip optically.

The target of test [7] is T7, human-mouse fusion construct 5017 of CD137, on Jurkat cells (human with a murine segment, UniProt Q07011 24-255).
T7 construct: on Jurkat cells
T7 chain: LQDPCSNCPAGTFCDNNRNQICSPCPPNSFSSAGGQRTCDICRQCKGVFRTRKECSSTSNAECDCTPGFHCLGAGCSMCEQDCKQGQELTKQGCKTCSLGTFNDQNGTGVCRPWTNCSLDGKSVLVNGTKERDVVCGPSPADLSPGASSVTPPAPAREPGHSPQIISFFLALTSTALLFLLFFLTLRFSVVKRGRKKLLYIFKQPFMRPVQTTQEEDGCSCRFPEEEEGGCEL
Put plainly: flow cytometry on transfected Jurkat cells, serial dilutions of antibody. How it is done:
as §1

Test [8] deals with T8, extracellular domain of human CD137 with Gly-Ser linker and 6×His tag (human, UniProt Q07011 24-186).
T8 construct: also called human CD137 (ELISA antigen); not shown: Gly-Ser linker
Put plainly: ELISA (DELFIA europium read-out), antigen coated at 5 µg/ml, IgG1 titrated. The protocol: (§3) Specifically, 50 μl of 5 μg/ml of each antigen diluted in 1×PBS pH 7.4 (Gibco™, Cat no. 10010056) was added to each well in a Thermo Scientific™ Black 96-Well Immuno Plate (Thermofisher Scientific, Cat no. 437111) and incubated at 4° C. overnight. The plate was washed three times with PBS using the Biotek 405TS microplate washer with Biostack3 microplate stacker. The plate was blocked by incubating with 300 ul/well of 3% Milk Powder in PBS (Marvel dried skimmed milk powder) for 1 hour at room temperature, and were washed three times with 1×PBS. The antibodies titrated in 3% M-PBS (Milk Powder in 1×PBS) were added to the plate and incubated for 1 hour at room temperature. The plate was washed three times with 1×PBS with 0.1% Tween20 (Sigma Aldrich, Cat No. P1379) and three times with 1×PBS using the plate washer. 50 μl Biotin-SP (long spacer) AffiniPure Goat Anti-Human IgG, Fcγ Fragment Specific (Jackson Immuno Research, Code:109-065-098, Lot no. 123909) diluted at 1:2000 in 3% M-PBS was added to each well and incubated for 1 hour at room temperature. The plate was washed three times with 1×PBS with 0.1% Tween20 and three times with 1×PBS using the plate washer. For detection, 50 μl of DELFIA® Europium-labeled streptavidin (PerkinElmer, Part no. 1244-360, Lot no. 2195997) diluted in the DELFIA® Assay buffer (PerkinElmer, Part no. 4002-0010, Lot no. 646702) at 1:500 was added to each well and incubated for 1 hour at room temperature. The plate was washed three times with 1×PBS with 0.1% Tween20 and three times with PBS using the plate washer.

Test [9] addresses T9, mouse-human fusion construct 5017 (extracellular domain, Gly-Ser linker, 6×His tag) (murine with a human segment, UniProt P20334 24-187).
T9 construct: not shown: Gly-Ser linker
T9 chain (part 1 of 2): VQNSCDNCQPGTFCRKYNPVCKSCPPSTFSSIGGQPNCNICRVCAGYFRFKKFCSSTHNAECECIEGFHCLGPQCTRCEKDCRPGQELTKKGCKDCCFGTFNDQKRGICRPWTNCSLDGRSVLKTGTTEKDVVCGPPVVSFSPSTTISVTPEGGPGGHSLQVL
T9 chain (part 2 of 2): HHHHHH
The test is described as above. The protocol:
as §3

Test [10] has as its target T10, mouse-human fusion construct 5015 (extracellular domain, Gly-Ser linker, 6×His tag) (murine with a human segment, UniProt P20334 24-187).
T10 construct: also called mCD137-human53-80; not shown: Gly-Ser linker
T10 chain (part 1 of 2): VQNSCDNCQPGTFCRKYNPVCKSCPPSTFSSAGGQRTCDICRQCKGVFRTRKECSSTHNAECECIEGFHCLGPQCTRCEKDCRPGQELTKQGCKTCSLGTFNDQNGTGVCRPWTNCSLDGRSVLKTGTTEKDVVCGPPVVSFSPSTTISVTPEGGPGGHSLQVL
T10 chain (part 2 of 2): HHHHHH
Briefly: ELISA (DELFIA europium read-out), antigen coated at 5 µg/ml. How it is done: as §3
For orientation: In an ELISA, binding on a coated surface is turned into a signal by an enzyme label.

B1: BA001 (IgG1) (antibody, V domains shown)
VH: not shown
VL: SYVLTQPPSVSVAPGETARITCGGDDIGDKRVHWYQKKPDQAPVLVVYEDRYRPSGIPERISGSNSGNTATLTLSRVEAGDEADYYCQVWDSSSDHPGVFGGGTQLIILG
modifications: N-terminal X = glutamine (Q) or pyroglutamate (pE)
notes: Human IgG1 with lambda light chain; also called anti-CD137 antibody BA001
With B1, the binding result in [1] was “binds”; in test [2] it was “binds”; in [3] it was “binds”; in test [4], “no binding (tested: 60 nM)”; in test [5], “binds”; in test [6], “binds”. Besides, in test [7], the binding result was “no binding”.

B2: BA049 (IgG1 format) (antibody, V domains shown)
VH: not shown
VL: B1 VL
modifications: N-terminal X = glutamine (Q) or pyroglutamate (pE)
In the case of B2, the binding result in test [8] is “binds”; in test [9] it was “binds”; in test [10], “no binding”.

B3: BA051 (IgG1 format) (antibody, V domains shown)
VH: not shown
VL: B1 VL with H96Y
modifications: N-terminal X = glutamine (Q) or pyroglutamate (pE)
B3: the figures for the binding result in test [8], in [9] and in [10] were “binds”, “binds” and “no binding”, respectively.

B4: BA050 (IgG1 format) (antibody, V domains shown)
VH: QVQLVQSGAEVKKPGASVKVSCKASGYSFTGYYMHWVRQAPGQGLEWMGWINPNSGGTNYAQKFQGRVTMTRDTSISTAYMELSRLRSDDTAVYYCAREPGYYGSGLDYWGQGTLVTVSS
VL: B1 VL with D91N
modifications: N-terminal X = glutamine (Q) or pyroglutamate (pE)
For the molecule B4, the binding result was “binds” in [8], “binds” in test [9] and “no binding” in test [10].

B5: BA052 (IgG1 format) (antibody, V domains shown)
VH: QVQLVQSGAEVKKPGASVKVSCKASGYNFSGYYMHWVRQAPGQGLEWMGWINPNSGGTNYAQKFQGRVTITRDTSISTAYMELSRLRSDDTAVYYCAREPGYYGSGLDYWGQGTLVTVSS
VL: B1 VL with D91Y, S94P
modifications: N-terminal X = glutamine (Q) or pyroglutamate (pE)
On to B5, for which the values for the binding result in test [8], in test [9] and in [10] were “binds”, “binds” and “no binding”, respectively.

These data come from patent US20180344870A1 (AGENUS, published 2018).
